Data taken from patent publication EP4806918A1 (Nanjing Probio Biotech Co., Ltd., dated 2026).

Experiments:
[1] = target: T1, recombinant human PD-L1-His protein (GenScript, Z03425) (human, UniProt Q9NZQ7 19-238); test: SPR, Biacore 8K, antibody Fc-captured, human PD-L1-His as analyte
T1 construct: Bought protein; also called recombinant human PD-L1 protein; human PD-L1 antigen protein; not shown: His tag

[2] = target: T2, cynomolgus monkey PD-L1 on a stable cell line (Probio, M00573) (cynomolgus monkey, UniProt G7PSE7 19-290); test: FACS on stable cell line expressing cynomolgus monkey PD-L1
T2 construct: whole, on cells; also called cells expressing monkey PD-L1
T2 sequence (G7PSE7 entry or part of it, one chain of several): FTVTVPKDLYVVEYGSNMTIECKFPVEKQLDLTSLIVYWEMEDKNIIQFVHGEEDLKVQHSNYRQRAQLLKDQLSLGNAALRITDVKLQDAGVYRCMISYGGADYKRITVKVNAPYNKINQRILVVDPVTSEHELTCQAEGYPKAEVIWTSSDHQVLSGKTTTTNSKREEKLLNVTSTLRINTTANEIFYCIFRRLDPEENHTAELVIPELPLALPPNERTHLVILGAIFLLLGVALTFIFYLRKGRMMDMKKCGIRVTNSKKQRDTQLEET

[3] = target: T3, mouse PD-L1 on a stable cell line (Probio, M00567) (mouse, UniProt Q9EP73 19-290); test: FACS on stable cell line expressing mouse PD-L1
T3 construct: whole, on cells; also called cells expressing mouse PD-L1
T3 sequence (Q9EP73 19-290, one chain of several): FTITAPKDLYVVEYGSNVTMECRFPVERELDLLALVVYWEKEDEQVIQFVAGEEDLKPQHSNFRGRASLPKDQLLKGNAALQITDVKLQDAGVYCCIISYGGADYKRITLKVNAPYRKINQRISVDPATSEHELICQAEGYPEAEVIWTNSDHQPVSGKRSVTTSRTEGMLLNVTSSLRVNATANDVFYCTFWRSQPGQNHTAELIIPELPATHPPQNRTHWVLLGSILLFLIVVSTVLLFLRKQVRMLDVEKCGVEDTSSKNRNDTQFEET

[4] = target: T1, recombinant human PD-L1-His protein …; test: competition ELISA on coated human PD-L1-His; row antibody titrated, competitor biotinylated Tecentriq detected
[5] = target: T1, recombinant human PD-L1-His protein …; test: indirect ELISA, plate coated with recombinant human PD-L1-His
[6] = target: T4, human PD-L1 on a stable cell line (Probio, RD00868) (human, UniProt Q9NZQ7 19-290); test: FACS on stable cell line expressing human PD-L1
T4 construct: whole, on cells; also called cells expressing human PD-L1
T4 sequence (Q9NZQ7 19-290): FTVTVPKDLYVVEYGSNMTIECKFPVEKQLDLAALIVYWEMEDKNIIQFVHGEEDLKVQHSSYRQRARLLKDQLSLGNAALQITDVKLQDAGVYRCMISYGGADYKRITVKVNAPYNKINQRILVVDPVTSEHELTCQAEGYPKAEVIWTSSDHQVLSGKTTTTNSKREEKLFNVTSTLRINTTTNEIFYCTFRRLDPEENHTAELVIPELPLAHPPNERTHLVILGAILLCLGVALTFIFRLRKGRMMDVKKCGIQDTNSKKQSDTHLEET

[7] = target: T1, recombinant human PD-L1-His protein …; test: competition ELISA on coated human PD-L1-His; row antibody titrated, competitor biotinylated Avelumab detected

T1 sequence (Q9NZQ7 19-238 limits assumed, one chain of several): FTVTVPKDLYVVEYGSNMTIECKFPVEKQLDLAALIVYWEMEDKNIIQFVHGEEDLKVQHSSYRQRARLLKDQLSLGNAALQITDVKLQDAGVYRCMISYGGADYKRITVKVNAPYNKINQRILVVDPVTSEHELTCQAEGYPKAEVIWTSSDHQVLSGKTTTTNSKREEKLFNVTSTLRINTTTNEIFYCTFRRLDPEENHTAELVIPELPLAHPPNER

| Kd [1] [nM] | koff [1] [s⁻¹] | kon [1] [M⁻¹ s⁻¹] | EC50 [2] [nM] | EC50 [3] [nM] | IC50 [4] [nM] | EC50 [5] [nM] | EC50 [6] [nM] | IC50 [7] [nM] | Binder |
| --- | --- | --- | --- | --- | --- | --- | --- | --- | --- |
| 50.3 | 0.00146 | 29000 | 43.5 | 31.8 | 0.972 | 4.26 | 15.9 | – | AHP30019 fully human antibody (antibody, IgG1, V domains shown, not shown: a dimerising Fc or GST) VH: QVQLVQSGGGLVQPGGSLRLSCAGSGSSFSLAVMGWYRQAPGRQRELVGIISSAAGTNYADSVKGRFTISRDDAKNTLYLQMNSLTAEDTAVYYCWRGAVPGDPYGRWGQGTLVTVSS VL: EIVLTQSPLSLPVTLGQPASISCRSSQSLVHSDGNTYLNWFQQRPGQPPRRLIYEVSNRDSGVPDRFSGSGSGTDFTLKISRVEAEDVGVYYCMQGTHWPWTFGQGTKVEIK |
| 5.08 | 0.000848 | 167000 | 1.34 | 0.746 | 96.1 | 0.173 | 0.977 | 8.97 | AHP31319 fully human antibody (antibody, IgG1, V domains shown, not shown: a dimerising Fc or GST) VH: EVQLVQSGGGLVQPGGSLRLSCAGSGSSFSLAVMGWYRQAPGRQRELVGIISSAAGTNYADSVKGRFTISRDDAKNTLYLQMNSLTAEDTAVYYCWRGAVPGDPYGRWGQGTTVTVSS VL: EIVMTQSPGTLSLSPGEGATLSCRASQSVSNNYLAWYQQKHGQAPRLLIYGASSRATGIPDRFSGSGSGTDFTLTINRLEPEDFALYYCQQYGNSPGTFGQGTKVDIK |
| – | – | – | 0.894 | – | – | – | – | – | Avelumab (antibody, V domains shown) VH: EVQLLESGGGLVQPGGSLRLSCAASGFTFSSYIMMWVRQAPGKGLEWVSSIYPSGGITFYADTVKGRFTISRDNSKNTLYLQMNSLRAEDTAVYYCARIKLGTVTTVDYWGQGTLVTVSS VL: QSALTQPASVSGSPGQSITISCTGTSSDVGGYNYVSWYQQHPGKAPKLMIYDVSNRPSGVSNRFSGSKSGNTASLTISGLQAEDEADYYCSSYTSSSTRVFGTGTKVTVLG |
| 0.305 | 0.000425 | 1.39e+06 | 0.725 | 0.184 | 2.81 | 0.275 | 0.193 | 1.34 | AHP30005 fully human antibody (antibody, IgG1, V domains shown, not shown: a dimerising Fc or GST) VH: QVQLVDSGGGLVQAGGSLSVSCAVSGRTALTYAVGWFRQAPGKERDFVAGINWSGSMTNYADSVKGRFTISRDNQKNTVYLQMNSLKPEDTAVYYCAATRTAITMPPQRDGVDYWGKGTTVTVSS VL: not shown |
